Source: patent publication US20240117018A1

What was measured:
Assay in all cases: cell-based or functional assay
[1] = biological target: HIV-1 Env of pseudovirus Ce1172_H1 (HIV-1)
[2] = biological target: HIV-1 Env of pseudovirus PVO.4 (HIV-1)
[3] = biological target: HIV-1 Env of pseudovirus BJOX028000.10.3 (HIV-1)
[4] = biological target: HIV-1 Env of pseudovirus 62357_14_D3_4589 (HIV-1)
[5] = biological target: HIV-1 Env of pseudovirus Q259.d2.17 (HIV-1)
[6] = biological target: HIV-1 Env of pseudovirus 620345.c01 (HIV-1)
[7] = biological target: HIV-1 Env of pseudovirus 3103.v3.c10 (HIV-1)
[8] = biological target: HIV-1 Env of pseudovirus 3016.v5.c45 (HIV-1)
[9] = biological target: HIV-1 Env of pseudovirus T250-4 (HIV-1)
[10] = biological target: HIV-1 Env of pseudovirus X2088_c9 (HIV-1)
[11] = biological target: HIV-1 Env of pseudovirus CNE20 (HIV-1)
[12] = biological target: MuLV envelope (negative control pseudovirus) (MuLV)
[13] = biological target: HIV-1 Env of pseudovirus R1166.c01 (HIV-1)
[14] = biological target: HIV-1 Env of pseudovirus Ce1086_B2 (HIV-1)
[15] = biological target: HIV-1 Env of pseudovirus Du422.1 (HIV-1)
[16] = biological target: HIV-1 Env of pseudovirus 6952.v1.c20 (HIV-1)
[17] = biological target: HIV-1 Env of pseudovirus AC10.0.29 (HIV-1)
[18] = biological target: HIV-1 Env of pseudovirus CAP210.2.00.E8 (HIV-1)
[19] = biological target: HIV-1 Env of pseudovirus 191955_A11 (HIV-1)
[20] = biological target: HIV-1 Env of pseudovirus Du172.17 (HIV-1)
[21] = biological target: HIV-1 Env of pseudovirus X1254_c3 (HIV-1)

Question: What does the source list for N49P7YTE (antibody)?
Answer: IC50 (Titer in TZM.bl cells) [1]: > 50 µg/mL; IC80 (Titer in TZM.bl cells) [1]: > 50 µg/mL; MPI [1]: 12; IC50 (Titer in TZM.bl cells) [2]: 0.088 µg/mL; IC80 (Titer in TZM.bl cells) [2]: 0.394 µg/mL; MPI [2]: 100; IC50 (Titer in TZM.bl cells) [3]: 0.018 µg/mL; IC80 (Titer in TZM.bl cells) [3]: 0.155 µg/mL; MPI [3]: 100; IC50 (Titer in TZM.bl cells) [4]: 0.039 µg/mL; IC80 (Titer in TZM.bl cells) [4]: 0.173 µg/mL; MPI [4]: 100; IC50 (Titer in TZM.bl cells) [5]: 5.34 µg/mL; IC80 (Titer in TZM.bl cells) [5]: 44.1 µg/mL; MPI [5]: 82; IC50 (Titer in TZM.bl cells) [6]: > 50 µg/mL; IC80 (Titer in TZM.bl cells) [6]: > 50 µg/mL; MPI [6]: 0; IC50 (Titer in TZM.bl cells) [7]: 0.322 µg/mL; IC80 (Titer in TZM.bl cells) [7]: 0.583 µg/mL; MPI [7]: 100; IC50 (Titer in TZM.bl cells) [8]: 1.15 µg/mL; IC80 (Titer in TZM.bl cells) [8]: 9.65 µg/mL; MPI [8]: 89; IC50 (Titer in TZM.bl cells) [9]: > 50 µg/mL; IC80 (Titer in TZM.bl cells) [9]: > 50 µg/mL; MPI [9]: 43; IC50 (Titer in TZM.bl cells) [10]: 0.329 µg/mL; IC80 (Titer in TZM.bl cells) [10]: 1.06 µg/mL; MPI [10]: 100; IC50 (Titer in TZM.bl cells) [11]: 0.11 µg/mL; IC80 (Titer in TZM.bl cells) [11]: 0.317 µg/mL; MPI [11]: 99; IC50 (Titer in TZM.bl cells) [12]: > 50 µg/mL; IC80 (Titer in TZM.bl cells) [12]: > 50 µg/mL; MPI [12]: 4; IC50 (Titer in TZM.bl cells) [13]: 0.232 µg/mL; IC80 (Titer in TZM.bl cells) [13]: 0.782 µg/mL; MPI [13]: 100; IC50 (Titer in TZM.bl cells) [14]: 0.113 µg/mL; IC80 (Titer in TZM.bl cells) [14]: 0.53 µg/mL; MPI [14]: 99; IC50 (Titer in TZM.bl cells) [15]: 13.2 µg/mL; IC80 (Titer in TZM.bl cells) [15]: > 50 µg/mL; MPI [15]: 76; IC50 (Titer in TZM.bl cells) [16]: > 50 µg/mL; IC80 (Titer in TZM.bl cells) [16]: > 50 µg/mL; MPI [16]: 13; IC50 (Titer in TZM.bl cells) [17]: > 50 µg/mL; IC80 (Titer in TZM.bl cells) [17]: > 50 µg/mL; MPI [17]: 28; IC50 (Titer in TZM.bl cells) [18]: 3.11 µg/mL; IC80 (Titer in TZM.bl cells) [18]: 13.9 µg/mL; MPI [18]: 99; IC50 (Titer in TZM.bl cells) [19]: 39 µg/mL; IC80 (Titer in TZM.bl cells) [19]: > 50 µg/mL; MPI [19]: 56; IC50 (Titer in TZM.bl cells) [20]: 0.283 µg/mL; IC80 (Titer in TZM.bl cells) [20]: 0.953 µg/mL; MPI [20]: 100; IC50 (Titer in TZM.bl cells) [21]: 26.2 µg/mL; IC80 (Titer in TZM.bl cells) [21]: > 50 µg/mL; MPI [21]: 59

Question: With N49P7-54TY (antibody) as the substance, how does the IC50 (Titer in TZM.bl cells) [1] read?
Answer: > 25 µg/mL

Question: And the IC80 (Titer in TZM.bl cells) [1]?
Answer: > 25 µg/mL

Question: And the MPI [1]?
Answer: 23

Question: What about the IC50 (Titer in TZM.bl cells) [2] of the same substance?
Answer: 0.079 µg/mL

Question: What about the IC80 (Titer in TZM.bl cells) [2] of the same substance?
Answer: 0.314 µg/mL

Question: What about the MPI [2] of the same substance?
Answer: 100

Question: What about the IC50 (Titer in TZM.bl cells) [3] of the same substance?
Answer: 0.009 µg/mL

Question: What about the IC80 (Titer in TZM.bl cells) [3] of the same substance?
Answer: 0.044 µg/mL

Question: What about the MPI [3] of the same substance?
Answer: 100

Question: What about the IC50 (Titer in TZM.bl cells) [4] of the same substance?
Answer: 0.055 µg/mL

Question: What about the IC80 (Titer in TZM.bl cells) [4] of the same substance?
Answer: 0.192 µg/mL

Question: And the MPI [4]?
Answer: 100

Question: What about the IC50 (Titer in TZM.bl cells) [5] of the same substance?
Answer: 0.132 µg/mL

Question: And the IC80 (Titer in TZM.bl cells) [5]?
Answer: 1.13 µg/mL

Question: And the MPI [5]?
Answer: 95

Question: What about the IC50 (Titer in TZM.bl cells) [6] of the same substance?
Answer: > 25 µg/mL

Question: What about the IC80 (Titer in TZM.bl cells) [6] of the same substance?
Answer: > 25 µg/mL

Question: And the MPI [6]?
Answer: 0

Question: And the IC50 (Titer in TZM.bl cells) [7]?
Answer: 0.151 µg/mL

Question: What about the IC80 (Titer in TZM.bl cells) [7] of the same substance?
Answer: 0.55 µg/mL

Question: And the MPI [7]?
Answer: 100

Question: What about the IC50 (Titer in TZM.bl cells) [8] of the same substance?
Answer: 0.206 µg/mL

Question: What about the IC80 (Titer in TZM.bl cells) [8] of the same substance?
Answer: 1.91 µg/mL

Question: What about the MPI [8] of the same substance?
Answer: 92

Question: What about the IC50 (Titer in TZM.bl cells) [9] of the same substance?
Answer: 1.02 µg/mL

Question: What about the IC80 (Titer in TZM.bl cells) [9] of the same substance?
Answer: 19.6 µg/mL

Question: And the MPI [9]?
Answer: 83

Question: And the IC50 (Titer in TZM.bl cells) [10]?
Answer: 0.172 µg/mL

Question: And the IC80 (Titer in TZM.bl cells) [10]?
Answer: 0.572 µg/mL

Question: What about the MPI [10] of the same substance?
Answer: 100

Question: What about the IC50 (Titer in TZM.bl cells) [11] of the same substance?
Answer: 0.046 µg/mL

Question: And the IC80 (Titer in TZM.bl cells) [11]?
Answer: 0.16 µg/mL

Question: What about the MPI [11] of the same substance?
Answer: 100

Question: And the IC50 (Titer in TZM.bl cells) [12]?
Answer: > 25 µg/mL

Question: And the IC80 (Titer in TZM.bl cells) [12]?
Answer: > 25 µg/mL

Question: What about the MPI [12] of the same substance?
Answer: 0

Question: What about the IC50 (Titer in TZM.bl cells) [13] of the same substance?
Answer: 0.131 µg/mL

Question: And the IC80 (Titer in TZM.bl cells) [13]?
Answer: 0.47 µg/mL

Question: What about the MPI [13] of the same substance?
Answer: 100

Question: What about the IC50 (Titer in TZM.bl cells) [14] of the same substance?
Answer: 0.067 µg/mL

Question: What about the IC80 (Titer in TZM.bl cells) [14] of the same substance?
Answer: 0.339 µg/mL

Question: And the MPI [14]?
Answer: 100

Question: And the IC50 (Titer in TZM.bl cells) [15]?
Answer: 0.402 µg/mL

Question: What about the IC80 (Titer in TZM.bl cells) [15] of the same substance?
Answer: 2.02 µg/mL

Question: What about the MPI [15] of the same substance?
Answer: 96

Question: And the IC50 (Titer in TZM.bl cells) [16]?
Answer: > 25 µg/mL

Question: And the IC80 (Titer in TZM.bl cells) [16]?
Answer: > 25 µg/mL

Question: What about the MPI [16] of the same substance?
Answer: 20

Question: What about the IC50 (Titer in TZM.bl cells) [17] of the same substance?
Answer: > 25 µg/mL

Question: What about the IC80 (Titer in TZM.bl cells) [17] of the same substance?
Answer: > 25 µg/mL

Question: And the MPI [17]?
Answer: 40

Question: And the IC50 (Titer in TZM.bl cells) [18]?
Answer: 0.691 µg/mL

Question: And the IC80 (Titer in TZM.bl cells) [18]?
Answer: 3.33 µg/mL

Question: And the MPI [18]?
Answer: 97

Question: What about the IC50 (Titer in TZM.bl cells) [19] of the same substance?
Answer: 3.04 µg/mL

Question: And the IC80 (Titer in TZM.bl cells) [19]?
Answer: > 25 µg/mL

Question: What about the MPI [19] of the same substance?
Answer: 72

Question: And the IC50 (Titer in TZM.bl cells) [20]?
Answer: 0.124 µg/mL

Question: What about the IC80 (Titer in TZM.bl cells) [20] of the same substance?
Answer: 0.529 µg/mL

Question: What about the MPI [20] of the same substance?
Answer: 100

Question: What about the IC50 (Titer in TZM.bl cells) [21] of the same substance?
Answer: 0.145 µg/mL

Question: And the IC80 (Titer in TZM.bl cells) [21]?
Answer: 0.599 µg/mL

Question: What about the MPI [21] of the same substance?
Answer: 100
